Data from patent US9618524B2, “Method, composition, isolation and identification of a plaque particle and related biomarker” (Plaxgen Inc., priority 2012, dated 2017).

What was measured:
Experiment in all cases: Mass spectroscopy proteomics, semi-quantitative binding affinity of serum proteins (plaqueproteome, Table 2)
Conditions in all cases: higher number = stronger affinity
[1] = test system: High Density cholesterol (Chl Large) plaque particles; set-up: species or system human
Outline: (§1)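 Serum or plasma from atherosclerotic subjects, diluted to 50% in PBS, was incubated with cholesterol aggregates (30 μg per 1 mL reaction) at 37° C for 1 hr. Small and large cholesterol plaque particles were sorted by flow cytometry gating, trypsin-digested and analysed by MS/MS against a human UniProt database.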

[2] = test system: Low density cholesterol (Chl small) plaque particles; set-up: species or system human
Outline: as §1

[3] = target: T1, Abeta-42 plaque particles (Homo sapiens, UniProt P05067)
T1 construct: Abeta 1-42
Outline: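 AD patient serum or plasma (50% in PBS) was incubated with Abeta-42 aggregates (30 μg) for 1 h at 37 °C, then stained with Thioflavin S for 30 min. Labeled particles were FACS-sorted, trypsin/Lys-C digested overnight and analyzed by MS/MS. Sequest searched human UniProt; Scaffold/Protein Prophet validated the identifications.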

[4] = target: T2, alpha-synuclein plaque particles (Homo sapiens, UniProt P37840)
T2 construct: 140 amino acids polypeptide
Outline: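 AD-subject plasma or serum (800 μL of 50%) mixed with 30 μg preformed alpha-synuclein aggregates for 1 h at 37 °C; Thioflavin S-positive particles isolated by flow sorting. After reduction, acrylamide alkylation and overnight tryptic digestion, serum proteins identified by MS/MS with Sequest and Scaffold.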

[5] = test system: Tau plaque particles; set-up: species or system human
Outline: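 Serum or plasma proteins captured on Thioflavin S-labelled Tau plaque particles (Tau-74, Tau-275 oligomers preformed in PBS at 37° C for 2 h; 1 h co-incubation at 37° C) were isolated by FACS sorting, then tryptically digested and identified by MS/MS (Sequest, human UniProt, strict trypsin).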

B1: Isoform LMW of Kininogen-1 (protein)
chain: QESQSEEIDCNDKDLFKAVDAALKKYNSQNQSNNQFVLYRITEATKTVGSDTFYSFKYEIKEGDCPVQSGKTWQDCEYKDAAKAATGECTATVGKRSSTKFSVATQTCQITPAEGPVVTAQYDCLGCVHPISTQSPDLEPILRHGIQYFNNNTQHSSLFMLNEVKRAQRQVVAGLNFRITYSIVQTNCSKENFLFLTPDCKSLWNGDTGECTDNAYIDIQLRIASFSQNCDIYPGKDFVQPPTKICVGCPRDIPTNSPELEETLTHTITKLNAENNATFYFKIDNVKKARVQVVAGKKYFIDFVARETTCSKESNEELTESCETKKLGQSLDCNAEVYVVPWEKKIYPTVNCQPLGMISLMKRPPGFSPFRSSRIGEIKEETTSHLRSCEYKGRPPKAGAEPASEREVS
Semi-quantitative analysis of proteins binding to different plaque particles: Chl Large [1]: 4
Semi-quantitative analysis of proteins binding to different plaque particles: Chl small [2]: 8
Semi-quantitative analysis of proteins binding to different plaque particles: Abeta-42 [3]: 0
Semi-quantitative analysis of proteins binding to different plaque particles: Synuclein [4]: 6
Semi-quantitative analysis of proteins binding to different plaque particles: Tau [5]: 1

B2: Cluster of Kininogen-1 (protein, UniProt P01042 19-644, looked up)
Kininogen-1: QESQSEEIDCNDKDLFKAVDAALKKYNSQNQSNNQFVLYRITEATKTVGSDTFYSFKYEIKEGDCPVQSGKTWQDCEYKDAAKAATGECTATVGKRSSTKFSVATQTCQITPAEGPVVTAQYDCLGCVHPISTQSPDLEPILRHGIQYFNNNTQHSSLFMLNEVKRAQRQVVAGLNFRITYSIVQTNCSKENFLFLTPDCKSLWNGDTGECTDNAYIDIQLRIASFSQNCDIYPGKDFVQPPTKICVGCPRDIPTNSPELEETLTHTITKLNAENNATFYFKIDNVKKARVQVVAGKKYFIDFVARETTCSKESNEELTESCETKKLGQSLDCNAEVYVVPWEKKIYPTVNCQPLGMISLMKRPPGFSPFRSSRIGEIKEETTVSPPHTSMAPAQDEERDSGKEQGHTRRHDWGHEKQRKHNLGHGHKHERDQGHGHQRGHGLGHGHEQQHGLGHGHKFKLDDDLEHQGGHVLDHGHKHKHGHGHGKHKNKGKKNGKHNGWKTEHLASSSEDSTTPSAQTQEKTEGPTPIPSLAKPGVTVTFSDFQDSDLIATMMPPISPAPIQSDDDWIPDIQIDPNGLSFNPISDFPDTTSPKCPGRPWKSVSEINPTTQMKESYYFDLTDGLS
Semi-quantitative analysis of proteins binding to different plaque particles: Chl Large [1]: 4
Semi-quantitative analysis of proteins binding to different plaque particles: Chl small [2]: 8
Semi-quantitative analysis of proteins binding to different plaque particles: Abeta-42 [3]: 0
Semi-quantitative analysis of proteins binding to different plaque particles: Synuclein [4]: 6
Semi-quantitative analysis of proteins binding to different plaque particles: Tau [5]: 1

B3: Kininogen-1 (protein)
chain: QESQSEEIDCNDKDLFKAVDAALKKYNSQNQSNNQFVLYRITEATKTVGSDTFYSFKYEIKEGDCPVQSGKTWQDCEYKDAAKAATGECTATVGKRSSTKFSVATQTCQITPAEGPVVTAQYDCLGCVHPISTQSPDLEPILRHGIQYFNNNTQHSSLFMLNEVKRAQRQVVAGLNFRITYSIVQTNCSKENFLFLTPDCKSLWNGDTGECTDNAYIDIQLRIASFSQNCDIYPGKDFVQPPTKICVGCPRDIPTNSPELEETLTHTITKLNAENNATFYFKIDNVKKARVQVVAGKKYFIDFVARETTCSKESNEELTESCETKKLGQSLDCNAEVYVVPWEKKIYPTVNCQPLGMISLMKRPPGFSPFRSSRIGEIKEETTVSPPHTSMAPAQDEERDSGKEQGHTRRHDWGHEKQRKHNLGHGHKHERDQGHGHQRGHGLGHGHEQQHGLGHGHKFKLDDDLEHQGGHVLDHGHKHKHGHGHGKHKNKGKKNGKHNGWKTEHLASSSEDSTTPSAQTQEKTEGPTPIPSLAKPGVTVTFSDFQDSDLIATMMPPISPAPIQSDDDWIPDIQIDPNGLSFNPISDFPDTTSPKCPGRPWKSVSEINPTTQMKESYYFDLTDGLS
Semi-quantitative analysis of proteins binding to different plaque particles: Chl Large [1]: 3
Semi-quantitative analysis of proteins binding to different plaque particles: Chl small [2]: 7
Semi-quantitative analysis of proteins binding to different plaque particles: Abeta-42 [3]: 0
Semi-quantitative analysis of proteins binding to different plaque particles: Synuclein [4]: 4
Semi-quantitative analysis of proteins binding to different plaque particles: Tau [5]: 1

B4: Isoform 2 of Inter-alpha-trypsin inhibitor heavy chain H4 (protein)
chain: EKNGIDIYSLTVDSRVSSRFAHTVVTSRVVNRANTVQEATFQMELPKKAFITNFSMIIDGMTYPGIIKEKAEAQAQYSAAVAKGKSAGLVKATGRNMEQFQVSVSVAPNAKITFELVYEELLKRRLGVYELLLKVRPQQLVKHLQMDIHIFEPQGISFLETESTFMTNQLVDALTTWQNKTKAHIRFKPTLSQQQKSPEQQETVLDGNLIIRYDVDRAISGGSIQIENGYFVHYFAPEGLTTMPKNVVFVIDKSGSMSGRKIQQTREALIKILDDLSPRDQFNLIVFSTEATQWRPSLVPASAENVNKARSFAAGIQALGGTNINDAMLMAVQLLDSSNQEERLPEGSVSLIILLTDGDPTVGETNPRSIQNNVREAVSGRYSLFCLGFGFDVSYAFLEKLALDNGGLARRIHEDSDSALQLQDFYQEVANPLLTAVTFEYPSNAVEEVTQNNFRLLFKGSEMVVAGKLQDRGPDVLTATVSGKLPTQNITFQTESSVAEQEAEFQSPKYIFHNFMERLWAYLTIQQLLEQTVSASDADQQALRNQALNLSLAYSFVTPLTSMVVTKPDDQEQSQVAEKPMEGESRNRNVHSAGAAGSRMNFRPGVLSSRQLGLPGPPDVPDHAAYHPFRRLAILPASAPPATSNPDPAVSRVMNMKIEETTMTTQTPACPSCSRSRAPAVPAPIQAPSAILPLPGQSVERLCVDPRHRQGPVNLLSDPEQGVEVTGQYEREKAGFSWIEVTFKNPLVWVHASPEHVVVTRNRRSSAYKWKETLFSVMPGLKMTMDKTGLLLLSDPDKVTIGLLFWDGRGEGLRLLLRDTDRFSSHVGGTLGQFYQEVLWGSPAASDDGRRTLRVQGNDHSATRERRLDYQEGPPGVEISCWSVEL
Semi-quantitative analysis of proteins binding to different plaque particles: Chl Large [1]: 20
Semi-quantitative analysis of proteins binding to different plaque particles: Chl small [2]: 13
Semi-quantitative analysis of proteins binding to different plaque particles: Abeta-42 [3]: 2
Semi-quantitative analysis of proteins binding to different plaque particles: Synuclein [4]: 12
Semi-quantitative analysis of proteins binding to different plaque particles: Tau [5]: 15

B5: Alpha-1-antichymotrypsin (protein)
chain: HPNSPLDEENLTQENQDRGTHVDLGLASANVDFAFSLYKQLVLKAPDKNVIFSPLSISTALAFLSLGAHNTTLTEILKGLKFNLTETSEAEIHQSFQHLLRTLNQSSDELQLSMGNAMFVKEQLSLLDRFTEDAKRLYGSEAFATDFQDSAAAKKLINDYVKNGTRGKITDLIKDLDSQTMMVLVNYIFFKAKWEMPFDPQDTHQSRFYLSKKKWVMVPMMSLHHLTIPYFRDEELSCTVVELKYTGNASALFILPDQDKMEEVEAMLLPETLKRWRDSLEFREIGELYLPKFSISRDYNLNDILLQLGIEEAFTSKADLSGITGARNLAVSQVVHKAVLDVFEEGTEASAATAVKITLLSALVETRTIVRFNRPFLMIIVPTDTQNIFFMSKVTNPKQA
Semi-quantitative analysis of proteins binding to different plaque particles: Chl Large [1]: 14
Semi-quantitative analysis of proteins binding to different plaque particles: Chl small [2]: 11
Semi-quantitative analysis of proteins binding to different plaque particles: Abeta-42 [3]: 11
Semi-quantitative analysis of proteins binding to different plaque particles: Synuclein [4]: 20
Semi-quantitative analysis of proteins binding to different plaque particles: Tau [5]: 16

B6: Inter-alpha-trypsin inhibitor heavy chain H4 (protein)
chain: EKNGIDIYSLTVDSRVSSRFAHTVVTSRVVNRANTVQEATFQMELPKKAFITNFSMIIDGMTYPGIIKEKAEAQAQYSAAVAKGKSAGLVKATGRNMEQFQVSVSVAPNAKITFELVYEELLKRRLGVYELLLKVRPQQLVKHLQMDIHIFEPQGISFLETESTFMTNQLVDALTTWQNKTKAHIRFKPTLSQQQKSPEQQETVLDGNLIIRYDVDRAISGGSIQIENGYFVHYFAPEGLTTMPKNVVFVIDKSGSMSGRKIQQTREALIKILDDLSPRDQFNLIVFSTEATQWRPSLVPASAENVNKARSFAAGIQALGGTNINDAMLMAVQLLDSSNQEERLPEGSVSLIILLTDGDPTVGETNPRSIQNNVREAVSGRYSLFCLGFGFDVSYAFLEKLALDNGGLARRIHEDSDSALQLQDFYQEVANPLLTAVTFEYPSNAVEEVTQNNFRLLFKGSEMVVAGKLQDRGPDVLTATVSGKLPTQNITFQTESSVAEQEAEFQSPKYIFHNFMERLWAYLTIQQLLEQTVSASDADQQALRNQALNLSLAYSFVTPLTSMVVTKPDDQEQSQVAEKPMEGESRNRNVHSGSTFFKYYLQGAKIPKPEASFSPRRGWNRQAGAAGSRMNFRPGVLSSRQLGLPGPPDVPDHAAYHPFRRLAILPASAPPATSNPDPAVSRVMNMKIEETTMTTQTPAPIQAPSAILPLPGQSVERLCVDPRHRQGPVNLLSDPEQGVEVTGQYEREKAGFSWIEVTFKNPLVWVHASPEHVVVTRNRRSSAYKWKETLFSVMPGLKMTMDKTGLLLLSDPDKVTIGLLFWDGRGEGLRLLLRDTDRFSSHVGGTLGQFYQEVLWGSPAASDDGRRTLRVQGNDHSATRERRLDYQEGPPGVEISCWSVEL
Semi-quantitative analysis of proteins binding to different plaque particles: Chl Large [1]: 20
Semi-quantitative analysis of proteins binding to different plaque particles: Chl small [2]: 13
Semi-quantitative analysis of proteins binding to different plaque particles: Abeta-42 [3]: 2
Semi-quantitative analysis of proteins binding to different plaque particles: Synuclein [4]: 12
Semi-quantitative analysis of proteins binding to different plaque particles: Tau [5]: 15
